Data from IntAct's records for PubMed 35512704.

B1: Mothers against decapentaplegic homolog 4 (Homo sapiens), Q13485 (parent)
chain: MDNMSITNTPTSNDACLSIVHSLMCHRQGGESETFAKRAIESLVKKLKEKKDELDSLITAITTNGAHPSKCVTIQRTLDGRLQVAGRKGFPHVIYARLWRWPDLHKNELKHVKYCQYAFDLKCDSVCVNPYHYERVVSPGIDLSGLTLQSNAPSSMMVKDEYVHDFEGQPSLSTEGHSIQTIQHPPSNRASTETYSTPALLAPSESNATSTANFPNIPVASTSQPASILGGSHSEGLLQIASGPQPGQQQNGFTGQPATYHHNSTTTWTGSRTAPYTPNLPHHQNGHLQHHPPMPPHPGHYWPVHNELAFQPPISNHPAPEYWCSIAYFEMDVQVGETFKVPSSCPIVTVDGYVDPSGGDRFCLGQLSNVHRTEAIERARLHIGKGVQLECKGEGDVWVRCLSDHAVFVQSYYLDREAGRAPGDAVHKIYPSAYIKVFDLRQCHRQMQQQAATAQAAAAAQAAAVAGNIPGPGSVGGIAPAISLSAAAGIGVDDLRRLCILRMSFVKGWGPDYPRQSIKETPCWIEIHLHRALQLLDEVLHTMPIADPQPLD

Variants of: B1
Conditions: with smad3_human SMAD3, P84022

effect of a mutation on the interaction | Variant
disrupting interaction strength | D351H

Variants of: B1
Conditions: with agap2_human AGAP2, Q99490

effect of a mutation on the interaction | Variant
with no effect | D351H

Variants of: B1
Conditions: with ajuba_human AJUBA

effect of a mutation on the interaction | Variant
with no effect | D351H

Variants of: B1
Conditions: with akts1_human AKT1S1, Q96B36

effect of a mutation on the interaction | Variant
with no effect | D351H

Variants of: B1
Conditions: with akt2_human AKT2, P31751
Chain of akt2_human AKT2, P31751 (P31751 whole entry): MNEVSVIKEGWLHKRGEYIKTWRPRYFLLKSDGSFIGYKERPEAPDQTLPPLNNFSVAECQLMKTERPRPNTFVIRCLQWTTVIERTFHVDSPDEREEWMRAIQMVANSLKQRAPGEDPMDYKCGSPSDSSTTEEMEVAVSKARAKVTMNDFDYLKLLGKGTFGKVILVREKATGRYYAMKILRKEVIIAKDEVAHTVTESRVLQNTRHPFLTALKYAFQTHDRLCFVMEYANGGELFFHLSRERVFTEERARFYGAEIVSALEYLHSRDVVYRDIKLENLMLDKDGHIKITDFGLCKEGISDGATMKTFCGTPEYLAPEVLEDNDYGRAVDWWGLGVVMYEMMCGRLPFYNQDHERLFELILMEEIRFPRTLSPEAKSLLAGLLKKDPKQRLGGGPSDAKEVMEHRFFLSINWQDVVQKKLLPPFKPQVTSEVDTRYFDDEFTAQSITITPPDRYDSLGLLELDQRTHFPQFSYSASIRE

effect of a mutation on the interaction | Variant
with no effect | D351H

Variants of: B1
Conditions: with alk_human ALK

effect of a mutation on the interaction | Variant
with no effect | D351H

Variants of: B1
Conditions: with aph1a_human APH1A

effect of a mutation on the interaction | Variant
with no effect | D351H

Variants of: B1
Conditions: with arnt_human ARNT

effect of a mutation on the interaction | Variant
with no effect | D351H

Variants of: B1
Conditions: with arc1a_human ARPC1A

effect of a mutation on the interaction | Variant
with no effect | D351H

Variants of: B1
Conditions: with asxl1_human ASXL1, Q8IXJ9

effect of a mutation on the interaction | Variant
with no effect | D351H

Variants of: B1
Conditions: with atpb_human ATP5F1B

effect of a mutation on the interaction | Variant
with no effect | D351H

Variants of: B1
Conditions: with aurkb_human AURKB

effect of a mutation on the interaction | Variant
with no effect | D351H

Variants of: B1
Conditions: with ufo_human AXL

effect of a mutation on the interaction | Variant
with no effect | D351H

Variants of: B1
Conditions: with za2g_human AZGP1, P25311
Chain of za2g_human AZGP1, P25311 (P25311 whole entry): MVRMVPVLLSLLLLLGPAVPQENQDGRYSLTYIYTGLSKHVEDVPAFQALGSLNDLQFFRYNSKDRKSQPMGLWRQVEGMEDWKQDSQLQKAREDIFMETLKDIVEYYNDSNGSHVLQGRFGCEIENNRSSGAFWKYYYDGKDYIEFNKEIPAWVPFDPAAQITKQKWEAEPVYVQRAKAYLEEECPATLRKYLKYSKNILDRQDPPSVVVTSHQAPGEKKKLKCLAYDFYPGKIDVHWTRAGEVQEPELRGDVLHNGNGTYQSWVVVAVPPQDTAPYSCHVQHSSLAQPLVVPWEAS

effect of a mutation on the interaction | Variant
with no effect | D351H

Variants of: B1
Conditions: with b2mg_human B2M

effect of a mutation on the interaction | Variant
with no effect | D351H

Variants of: B1
Conditions: with becn1_human BECN1, Q14457
Chain of becn1_human BECN1, Q14457 (Q14457 whole entry): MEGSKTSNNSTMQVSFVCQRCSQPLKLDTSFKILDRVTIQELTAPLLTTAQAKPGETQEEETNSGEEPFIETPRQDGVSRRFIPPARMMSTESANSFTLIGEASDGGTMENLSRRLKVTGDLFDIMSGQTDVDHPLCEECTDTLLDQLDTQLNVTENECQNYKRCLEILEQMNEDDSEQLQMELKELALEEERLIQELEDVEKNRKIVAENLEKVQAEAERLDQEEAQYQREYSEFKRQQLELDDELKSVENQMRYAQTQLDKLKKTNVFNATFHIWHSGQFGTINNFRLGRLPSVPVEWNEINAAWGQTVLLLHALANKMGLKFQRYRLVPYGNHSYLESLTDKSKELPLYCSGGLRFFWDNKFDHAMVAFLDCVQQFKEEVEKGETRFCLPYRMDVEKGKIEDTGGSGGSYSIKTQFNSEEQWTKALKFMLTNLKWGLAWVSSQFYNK

effect of a mutation on the interaction | Variant
with no effect | D351H

Variants of: B1
Conditions: with birc2_human BIRC2, Q13490

effect of a mutation on the interaction | Variant
with no effect | D351H

Variants of: B1
Conditions: with braf_human BRAF

effect of a mutation on the interaction | Variant
with no effect | D351H

Variants of: B1
Conditions: with baba2_human BABAM2, Q9NXR7

effect of a mutation on the interaction | Variant
with no effect | D351H

Variants of: B1
Conditions: with btg1_human BTG1, P62324

effect of a mutation on the interaction | Variant
with no effect | D351H

Variants of: B1
Conditions: with cbl_human CBL

effect of a mutation on the interaction | Variant
with no effect | D351H

Variants of: B1
Conditions: with cblb_human CBLB

effect of a mutation on the interaction | Variant
with no effect | D351H

Variants of: B1
Conditions: with ccnd1_human CCND1, P24385

effect of a mutation on the interaction | Variant
with no effect | D351H

Variants of: B1
Conditions: with ccnd2_human CCND2, P30279
Chain of ccnd2_human CCND2, P30279 (P30279 whole entry): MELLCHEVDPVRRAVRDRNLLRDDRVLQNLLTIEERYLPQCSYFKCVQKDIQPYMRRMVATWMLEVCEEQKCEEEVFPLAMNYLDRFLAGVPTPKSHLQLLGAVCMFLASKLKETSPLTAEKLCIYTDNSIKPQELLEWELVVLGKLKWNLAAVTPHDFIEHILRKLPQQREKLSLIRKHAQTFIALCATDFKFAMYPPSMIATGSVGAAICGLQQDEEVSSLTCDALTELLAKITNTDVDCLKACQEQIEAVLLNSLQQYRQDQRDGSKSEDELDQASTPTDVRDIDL

effect of a mutation on the interaction | Variant
with no effect | D351H

Variants of: B1
Conditions: with ccnd3_human CCND3, P30281

effect of a mutation on the interaction | Variant
with no effect | D351H

Variants of: B1
Conditions: with ccne1_human CCNE1, P24864

effect of a mutation on the interaction | Variant
with no effect | D351H

Variants of: B1
Conditions: with cd44_human CD44, P16070

effect of a mutation on the interaction | Variant
with no effect | D351H

Variants of: B1
Conditions: with cd79b_human CD79B

effect of a mutation on the interaction | Variant
with no effect | D351H

Variants of: B1
Conditions: with cdk4_human CDK4, P11802

effect of a mutation on the interaction | Variant
with no effect | D351H

Variants of: B1
Conditions: with cdn2b_human CDKN2B

effect of a mutation on the interaction | Variant
with no effect | D351H

Variants of: B1
Conditions: with cdn2c_human CDKN2C

effect of a mutation on the interaction | Variant
with no effect | D351H

Variants of: B1
Conditions: with cebpa_human CEBPA

effect of a mutation on the interaction | Variant
with no effect | D351H

Variants of: B1
Conditions: with chd1l_human CHD1L

effect of a mutation on the interaction | Variant
with no effect | D351H

Variants of: B1
Conditions: with chd2_human CHD2, O14647

effect of a mutation on the interaction | Variant
with no effect | D351H

Variants of: B1
Conditions: with ch3l1_human CHI3L1, P36222

effect of a mutation on the interaction | Variant
with no effect | D351H

Variants of: B1
Conditions: with csf1r_human CSF1R

effect of a mutation on the interaction | Variant
with no effect | D351H

Variants of: B1
Conditions: with ctna1_human CTNNA1, P35221

effect of a mutation on the interaction | Variant
with no effect | D351H

Variants of: B1
Conditions: with ctnb1_human CTNNB1, P35222

effect of a mutation on the interaction | Variant
with no effect | D351H

Variants of: B1
Conditions: with cul3_human CUL3, Q13618

effect of a mutation on the interaction | Variant
with no effect | D351H

Variants of: B1
Conditions: with dicer_human DICER1, Q9UPY3

effect of a mutation on the interaction | Variant
with no effect | D351H

Variants of: B1
Conditions: with duox2_human DUOX2, Q9NRD8

effect of a mutation on the interaction | Variant
with no effect | D351H

Variants of: B1
Conditions: with e2f1_human E2F1, Q01094

effect of a mutation on the interaction | Variant
with no effect | D351H

Variants of: B1
Conditions: with e2f2_human E2F2, Q14209

effect of a mutation on the interaction | Variant
with no effect | D351H

Variants of: B1
Conditions: with e2f3_human E2F3, O00716
Chain of e2f3_human E2F3, O00716 (O00716 whole entry): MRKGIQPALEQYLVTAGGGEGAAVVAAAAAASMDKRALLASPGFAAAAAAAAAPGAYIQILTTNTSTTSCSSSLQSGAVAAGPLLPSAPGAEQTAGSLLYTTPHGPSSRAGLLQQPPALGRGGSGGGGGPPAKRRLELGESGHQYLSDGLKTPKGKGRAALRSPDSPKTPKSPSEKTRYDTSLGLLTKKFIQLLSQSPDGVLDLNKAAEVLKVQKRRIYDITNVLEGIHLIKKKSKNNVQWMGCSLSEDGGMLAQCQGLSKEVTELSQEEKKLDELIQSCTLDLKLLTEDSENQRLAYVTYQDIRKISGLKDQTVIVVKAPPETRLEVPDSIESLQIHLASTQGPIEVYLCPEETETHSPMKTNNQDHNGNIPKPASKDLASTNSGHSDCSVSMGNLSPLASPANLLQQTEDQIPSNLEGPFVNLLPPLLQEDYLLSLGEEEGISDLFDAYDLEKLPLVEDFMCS

effect of a mutation on the interaction | Variant
with no effect | D351H

Variants of: B1
Conditions: with e2f4_human E2F4, Q16254

effect of a mutation on the interaction | Variant
with no effect | D351H

Variants of: B1
Conditions: with e2f5_human E2F5, Q15329

effect of a mutation on the interaction | Variant
with no effect | D351H

Variants of: B1
Conditions: with if4e_human EIF4E

effect of a mutation on the interaction | Variant
with no effect | D351H

Variants of: B1
Conditions: with epha7_human EPHA7, Q15375

effect of a mutation on the interaction | Variant
with no effect | D351H

Variants of: B1
Conditions: with ephb1_human EPHB1, P54762
Chain of ephb1_human EPHB1, P54762 (P54762 whole entry): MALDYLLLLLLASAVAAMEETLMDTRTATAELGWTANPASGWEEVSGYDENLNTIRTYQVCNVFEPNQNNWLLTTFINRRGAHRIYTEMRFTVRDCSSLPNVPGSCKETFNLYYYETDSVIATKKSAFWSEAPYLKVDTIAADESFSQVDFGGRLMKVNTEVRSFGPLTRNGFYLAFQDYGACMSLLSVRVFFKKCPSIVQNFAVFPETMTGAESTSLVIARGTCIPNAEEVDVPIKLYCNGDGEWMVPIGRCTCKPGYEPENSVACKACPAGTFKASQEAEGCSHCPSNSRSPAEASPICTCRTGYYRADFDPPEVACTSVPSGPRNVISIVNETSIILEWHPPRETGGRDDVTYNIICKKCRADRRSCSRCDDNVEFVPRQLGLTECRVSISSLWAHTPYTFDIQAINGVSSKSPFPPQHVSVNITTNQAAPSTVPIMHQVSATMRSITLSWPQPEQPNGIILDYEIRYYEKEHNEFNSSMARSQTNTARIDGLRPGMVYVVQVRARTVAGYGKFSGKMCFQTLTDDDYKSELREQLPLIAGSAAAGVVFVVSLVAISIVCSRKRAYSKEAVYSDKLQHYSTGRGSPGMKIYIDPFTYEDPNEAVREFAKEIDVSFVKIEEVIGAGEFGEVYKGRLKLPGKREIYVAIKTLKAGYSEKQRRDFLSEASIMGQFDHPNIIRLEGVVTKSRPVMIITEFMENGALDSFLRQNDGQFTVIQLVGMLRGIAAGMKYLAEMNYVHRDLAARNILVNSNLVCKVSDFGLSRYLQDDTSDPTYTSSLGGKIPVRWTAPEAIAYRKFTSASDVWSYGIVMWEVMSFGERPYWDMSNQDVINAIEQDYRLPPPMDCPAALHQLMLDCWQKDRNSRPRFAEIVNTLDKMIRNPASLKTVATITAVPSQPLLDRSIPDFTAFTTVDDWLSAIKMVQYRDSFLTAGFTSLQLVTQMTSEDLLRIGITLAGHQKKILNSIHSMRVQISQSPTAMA

effect of a mutation on the interaction | Variant
with no effect | D351H

Variants of: B1
Conditions: with erbb3_human ERBB3, P21860

effect of a mutation on the interaction | Variant
with no effect | D351H

Variants of: B1
Conditions: with erbb4_human ERBB4, Q15303

effect of a mutation on the interaction | Variant
with no effect | D351H

Variants of: B1
Conditions: with esr1_human ESR1, P03372

effect of a mutation on the interaction | Variant
with no effect | D351H

Variants of: B1
Conditions: with etv1_human ETV1, P50549

effect of a mutation on the interaction | Variant
with no effect | D351H

Variants of: B1
Conditions: with fadd_human FADD

effect of a mutation on the interaction | Variant
with no effect | D351H

Variants of: B1
Conditions: with facd2_human FANCD2, Q9BXW9

effect of a mutation on the interaction | Variant
with no effect | D351H

Variants of: B1
Conditions: with fgf19_human FGF19, O95750

effect of a mutation on the interaction | Variant
with no effect | D351H

Variants of: B1
Conditions: with fgfp1_human FGFBP1, Q14512

effect of a mutation on the interaction | Variant
with no effect | D351H

Variants of: B1
Conditions: with fgfr3_human FGFR3, P22607

effect of a mutation on the interaction | Variant
with no effect | D351H

Variants of: B1
Conditions: with fgfr4_human FGFR4, P22455

effect of a mutation on the interaction | Variant
with no effect | D351H

Variants of: B1
Conditions: with fumh_human FH

effect of a mutation on the interaction | Variant
with no effect | D351H

Variants of: B1
Conditions: with foxo1_human FOXO1, Q12778

effect of a mutation on the interaction | Variant
with no effect | D351H

Variants of: B1
Conditions: with foxo3_human FOXO3, O43524

effect of a mutation on the interaction | Variant
with no effect | D351H

Variants of: B1
Conditions: with gbra6_human GABRA6, Q16445

effect of a mutation on the interaction | Variant
with no effect | D351H

Variants of: B1
Conditions: with gata2_human GATA2, P23769

effect of a mutation on the interaction | Variant
with no effect | D351H

Variants of: B1
Conditions: with gata3_human GATA3, P23771

effect of a mutation on the interaction | Variant
with no effect | D351H

Variants of: B1
Conditions: with gna11_human GNA11, P29992
Chain of gna11_human GNA11, P29992 (P29992 whole entry): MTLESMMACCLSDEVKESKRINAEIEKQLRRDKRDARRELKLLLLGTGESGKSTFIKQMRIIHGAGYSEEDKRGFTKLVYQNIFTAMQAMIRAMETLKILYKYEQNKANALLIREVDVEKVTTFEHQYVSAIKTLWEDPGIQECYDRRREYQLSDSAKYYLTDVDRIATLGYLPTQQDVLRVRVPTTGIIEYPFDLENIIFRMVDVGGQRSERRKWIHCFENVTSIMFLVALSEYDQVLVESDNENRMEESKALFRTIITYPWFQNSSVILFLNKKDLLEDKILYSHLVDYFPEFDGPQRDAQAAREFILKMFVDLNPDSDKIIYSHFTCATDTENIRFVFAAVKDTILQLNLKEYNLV

effect of a mutation on the interaction | Variant
with no effect | D351H

Variants of: B1
Conditions: with gna13_human GNA13, Q14344

effect of a mutation on the interaction | Variant
with no effect | D351H

Variants of: B1
Conditions: with gnaq_human GNAQ

effect of a mutation on the interaction | Variant
with no effect | D351H

Variants of: B1
Conditions: with grb7_human GRB7, Q14451

effect of a mutation on the interaction | Variant
with no effect | D351H

Variants of: B1
Conditions: with grm1_human GRM1, Q13255

effect of a mutation on the interaction | Variant
with no effect | D351H

Variants of: B1
Conditions: with grm3_human GRM3, Q14832

effect of a mutation on the interaction | Variant
with no effect | D351H

Variants of: B1
Conditions: with gsk3a_human GSK3A

effect of a mutation on the interaction | Variant
with no effect | D351H

Variants of: B1
Conditions: with hdac1_human HDAC1, Q13547
Chain of hdac1_human HDAC1, Q13547 (Q13547 whole entry): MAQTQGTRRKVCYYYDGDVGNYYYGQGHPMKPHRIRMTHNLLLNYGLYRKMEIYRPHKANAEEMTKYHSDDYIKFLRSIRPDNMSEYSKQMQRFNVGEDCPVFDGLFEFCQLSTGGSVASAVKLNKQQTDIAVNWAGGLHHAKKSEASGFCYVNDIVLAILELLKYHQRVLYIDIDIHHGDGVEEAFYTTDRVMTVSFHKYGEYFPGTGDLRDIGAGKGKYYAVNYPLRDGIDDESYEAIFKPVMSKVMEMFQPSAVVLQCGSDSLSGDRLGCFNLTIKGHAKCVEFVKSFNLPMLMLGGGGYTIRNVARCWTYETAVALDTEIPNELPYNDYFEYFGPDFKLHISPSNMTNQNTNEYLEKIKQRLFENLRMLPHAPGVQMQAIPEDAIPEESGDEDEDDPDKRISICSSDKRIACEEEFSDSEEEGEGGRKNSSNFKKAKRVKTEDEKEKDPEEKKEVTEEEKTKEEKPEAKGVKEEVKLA

effect of a mutation on the interaction | Variant
with no effect | D351H

Variants of: B1
Conditions: with hdac3_human HDAC3, O15379

effect of a mutation on the interaction | Variant
with no effect | D351H

Variants of: B1
Conditions: with hgf_human HGF

effect of a mutation on the interaction | Variant
with no effect | D351H

Variants of: B1
Conditions: with h31_human H3C1, P68431

effect of a mutation on the interaction | Variant
with no effect | D351H

Variants of: B1
Conditions: with hlab_human HLA-B

effect of a mutation on the interaction | Variant
with no effect | D351H

Variants of: B1
Conditions: with rash_human HRAS

effect of a mutation on the interaction | Variant
with no effect | D351H

Variants of: B1
Conditions: with hs90a_human HSP90AA1, P07900

effect of a mutation on the interaction | Variant
with no effect | D351H

Variants of: B1
Conditions: with il7ra_human IL7R

effect of a mutation on the interaction | Variant
with no effect | D351H

Variants of: B1
Conditions: with irf6_human IRF6, O14896

effect of a mutation on the interaction | Variant
with no effect | D351H

Variants of: B1
Conditions: with irs1_human IRS1, P35568

effect of a mutation on the interaction | Variant
with no effect | D351H

Variants of: B1
Conditions: with jak1_human JAK1, P23458
Chain of jak1_human JAK1, P23458 (P23458 whole entry): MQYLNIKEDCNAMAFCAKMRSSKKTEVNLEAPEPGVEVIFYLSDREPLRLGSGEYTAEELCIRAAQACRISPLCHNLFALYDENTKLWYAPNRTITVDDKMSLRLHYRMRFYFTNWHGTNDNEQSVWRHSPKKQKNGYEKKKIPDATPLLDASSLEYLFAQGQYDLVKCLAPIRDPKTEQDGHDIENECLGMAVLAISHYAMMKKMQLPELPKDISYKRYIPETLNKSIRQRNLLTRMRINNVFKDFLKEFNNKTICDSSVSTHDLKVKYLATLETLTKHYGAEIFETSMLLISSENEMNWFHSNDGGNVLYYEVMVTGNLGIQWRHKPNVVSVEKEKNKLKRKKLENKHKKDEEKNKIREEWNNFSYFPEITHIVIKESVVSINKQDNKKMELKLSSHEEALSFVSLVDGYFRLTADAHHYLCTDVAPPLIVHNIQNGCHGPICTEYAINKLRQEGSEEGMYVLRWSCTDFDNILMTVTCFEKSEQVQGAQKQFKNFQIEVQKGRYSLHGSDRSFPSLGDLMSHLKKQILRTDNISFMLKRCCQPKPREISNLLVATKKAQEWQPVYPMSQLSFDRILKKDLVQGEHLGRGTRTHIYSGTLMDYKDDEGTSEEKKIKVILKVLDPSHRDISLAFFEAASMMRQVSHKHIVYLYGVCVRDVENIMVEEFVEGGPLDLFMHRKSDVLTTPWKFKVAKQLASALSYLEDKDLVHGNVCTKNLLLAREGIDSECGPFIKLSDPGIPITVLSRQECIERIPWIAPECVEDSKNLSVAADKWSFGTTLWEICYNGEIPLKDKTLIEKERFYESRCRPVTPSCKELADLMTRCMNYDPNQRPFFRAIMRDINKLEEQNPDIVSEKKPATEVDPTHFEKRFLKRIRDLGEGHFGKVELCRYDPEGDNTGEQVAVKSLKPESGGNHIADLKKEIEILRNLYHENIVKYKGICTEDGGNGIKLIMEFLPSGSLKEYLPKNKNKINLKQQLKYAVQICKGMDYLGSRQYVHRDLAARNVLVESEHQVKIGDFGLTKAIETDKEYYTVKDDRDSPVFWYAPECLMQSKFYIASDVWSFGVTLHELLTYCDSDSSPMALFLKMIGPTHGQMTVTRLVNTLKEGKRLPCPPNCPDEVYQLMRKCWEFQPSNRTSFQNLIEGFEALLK

effect of a mutation on the interaction | Variant
with no effect | D351H

Variants of: B1
Conditions: with kat2a_human KAT2A

effect of a mutation on the interaction | Variant
with no effect | D351H

Variants of: B1
Conditions: with kdm5c_human KDM5C

effect of a mutation on the interaction | Variant
with no effect | D351H

Variants of: B1
Conditions: with kdm6a_human KDM6A

effect of a mutation on the interaction | Variant
with no effect | D351H

Variants of: B1
Conditions: with vgfr2_human KDR

effect of a mutation on the interaction | Variant
with no effect | D351H
